Test results taken from article doi:10.1101/2021.05.01.442157.

Molecular target: amyloid β precursor-like protein 1 (Aplp1), on transfected SH-SY5Y cells (UniProt Q03157)
Experiment: cell surface-binding assay

Sequence of UniProt Q03157 (Q03157 39-654): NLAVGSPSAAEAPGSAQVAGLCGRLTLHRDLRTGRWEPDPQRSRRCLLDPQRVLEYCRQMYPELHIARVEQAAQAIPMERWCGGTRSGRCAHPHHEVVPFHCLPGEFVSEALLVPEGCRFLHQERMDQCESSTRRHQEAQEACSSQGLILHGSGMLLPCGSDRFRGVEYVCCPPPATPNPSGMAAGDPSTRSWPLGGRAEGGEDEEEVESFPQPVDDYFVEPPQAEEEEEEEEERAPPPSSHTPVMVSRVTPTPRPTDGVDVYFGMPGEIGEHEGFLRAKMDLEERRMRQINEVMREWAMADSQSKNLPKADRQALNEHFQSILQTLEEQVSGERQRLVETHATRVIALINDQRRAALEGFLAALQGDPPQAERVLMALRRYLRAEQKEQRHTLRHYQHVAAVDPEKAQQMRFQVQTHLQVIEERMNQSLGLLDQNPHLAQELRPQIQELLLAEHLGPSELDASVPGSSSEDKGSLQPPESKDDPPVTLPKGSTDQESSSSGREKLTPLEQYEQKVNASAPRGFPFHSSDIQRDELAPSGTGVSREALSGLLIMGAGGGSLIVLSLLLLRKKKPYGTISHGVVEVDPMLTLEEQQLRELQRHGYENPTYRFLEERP

β-amyloid-biotin PFF (peptide)
Kd: > 3 µM
